Data as given in patent US20050118615A1 (COMPUGEN, published 2005).

Tests used:
[1] = molecular target: T1, recombinant human BMP-4 (R&D Systems) (human, UniProt P12644 293-408); assay: pull-down on Talon metal affinity resin with immobilised His-hCHL2, immunoblot with anti-BMP2/4 antibody
T1 construct: Bought reagent
T1 sequence (looked up): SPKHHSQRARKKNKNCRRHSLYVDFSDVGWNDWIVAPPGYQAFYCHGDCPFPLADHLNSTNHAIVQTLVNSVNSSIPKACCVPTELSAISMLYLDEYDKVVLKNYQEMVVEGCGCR
Description: (§1) Protein binding assays with His-tagged hCHL2 protein Culture media of COS7 cells, transfected with hCHL2 cloned in pcDNA4/His, or empty vector (see above), were collected every 24 hrs, beginning at 48 hrs after transfection for a total of 96 hrs, and concentrated 10-fold by ultrafiltration through a YM Millipore membrane under nitrogen pressure (Millipore, Bedford, Mass.) before binding of secreted His-tagged hCHL2 to BD TALONTM Metal Affinity Resin (Clontech, Palo Alto, Calif.). The resin was added to the concentrated medium, rotated for 30 min at room temperature, and then washed twice with loading buffer (50 mM NaH₂PO₄, pH 8, 300 mM NaCl, 5 mM imidazole) and resuspended in 200 μl of binding buffer (1 mM CaCl₂, 3 mM MgCl₂, 0.2% NP-40, 1 mg/ml BSA in PBS). The His-hCHL2, immobilized on the resin, was incubated with 200 ng of recombinant human BMP-2, -4, -6 or Activin A (all purchased from R&D Systems), while rotating for 1 hr at room temperature, and then washed once with binding buffer and twice with binding buffer supplemented with 0.2% Tween. […]
(§2) COS-7 cells were transfected with a pcDNA4 (Invitrogen, Carlsbad, Calif.) vector expressing His-tagged hCHL2 (coding region corresponding to variant II, SEQ ID NO:6), and the culture media were collected for 72 hrs. […] No interaction was detected with any of the other proteins tested (BMP-2, 4, or 6).

[2] = molecular target: T2, recombinant human BMP-2 (R&D Systems) (human, UniProt P12643 283-396); assay: as above
T2 construct: Bought reagent
Description: as §1, §2

[3] = molecular target: T3, recombinant human BMP-6 (R&D Systems) (human, UniProt P22004 382-513, limits assumed); assay: pull-down on Talon metal affinity resin with immobilised His-hCHL2, immunoblot with anti-BMP-6 antibody
T3 construct: Bought reagent
T3 sequence (looked up): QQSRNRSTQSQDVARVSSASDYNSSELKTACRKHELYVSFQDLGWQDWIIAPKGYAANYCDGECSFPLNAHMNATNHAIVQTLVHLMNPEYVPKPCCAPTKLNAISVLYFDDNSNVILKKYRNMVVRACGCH
Description: as §1, §2

Measured: binding result

T2 sequence (P12643 283-396 limits assumed): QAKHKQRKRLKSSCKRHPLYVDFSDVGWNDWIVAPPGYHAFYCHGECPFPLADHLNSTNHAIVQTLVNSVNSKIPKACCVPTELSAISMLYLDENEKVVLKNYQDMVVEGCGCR

B1: His-tagged hCHL2 (variant II), secreted from COS-7 cells transfected with pcDNA4/myc-His-hCHL2 (other, not shown: small tags and cut ends)
chain: RARPDMFCLFHGKRYSPGESWHPYLEPQGLMYCLRCTCSEGAHVSCYRLHCPPVHCPQPVTEPQQCCPKCVEPHTPSGLRAPPKSCQHNGTMYQHGEIFSAHELFPSRLPNQCVLCSCTEGQIYCGLTTCPEPGCPAPLPLPDSCCQACKDEASEQSDEEDRVQSLHGVRHPQDPCSSDAGRKRGPGTPAPTGLSAPLSFIPRHFIPKGAGSTTVKIVLKEKHKKACVHGGKTYSHGEVWHPAFRAFGPLPCILCTCEDGRQDCQRVTCPTEYPCRHPEKVAGKCCKICPEDKADPGHSEISSTRCPKAPGRVLVHTSVSPSPDNLRRFALEHEASDLVEIYLWKLVKDEETEAQRGEVPGPRPHSQNLPLDSDQESQEARLPERGTALPTARWPPRRSLERLPSPDPGAEGHGQSRQSDQDITKT
notes: also called His-tagged hCHL2 protein
no binding (tested: 200 ng): [1] | [2] | [3]
